According to the supplement of paper PMC10219994:
± gives the standard deviation of the averaged measurements.

B1: library; a variant is named by its letters at N, in order (parent)
chain: GAGACCGCAACTGAAAAGTTGTGGNNNNNATAGTGAGTCGCTGCCTGCAAAGACACAACT

Variants of: B1
Experiment: ligation selection enrichment (abundance after / before one-round selection) (fold); higher = more template-directed ligation activity
Conditions: with T7Psub CACGGAUGCUAAUACGACUCACUAUA; MgCl2 25 mM; 42 °C; 4 h; pH 8.5
Protocol: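 Lib-N5 ligase ribozyme library: five randomized core nucleotides (including the GGA motif of N8-1) within the fixed N8-1 ribozyme flanks, transcribed by T7 RNA polymerase with a 5'-triphosphate. The library (0.75 uM) was reacted with substrate T7Psub (6 uM) in 50 mM EPPS pH 8.5 with 25 mM MgCl2 at 42 C for 4 h. Ligated products were PAGE-purified, reverse transcribed and MiSeq sequenced; enrichment = abundance after selection / abundance before selection, with two independent replicates. The full transcript is built from the printed template flanks.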

Variant | ligation selection enrichment
GAGACCGCAACTGAAAAGTTGTGGAACCAATAGTGAGTCGCTGCCTGCAAAGACACAACT [AACCA] | 0.1955 ± 0.00066
GAGACCGCAACTGAAAAGTTGTGGGACGTATAGTGAGTCGCTGCCTGCAAAGACACAACT [GACGT] | 0.154 ± 0.063
GAGACCGCAACTGAAAAGTTGTGGCTGGGATAGTGAGTCGCTGCCTGCAAAGACACAACT [CTGGG] | 0.152 ± 0.051
GAGACCGCAACTGAAAAGTTGTGGCTGGTATAGTGAGTCGCTGCCTGCAAAGACACAACT [CTGGT] | 0.18 ± 0.078
GAGACCGCAACTGAAAAGTTGTGGGCAGGATAGTGAGTCGCTGCCTGCAAAGACACAACT [GCAGG] | 0.189 ± 0.024
GAGACCGCAACTGAAAAGTTGTGGCAAAAATAGTGAGTCGCTGCCTGCAAAGACACAACT [CAAAA] | 0.131 ± 0.011
GAGACCGCAACTGAAAAGTTGTGGATGCAATAGTGAGTCGCTGCCTGCAAAGACACAACT [ATGCA] | 0.419 ± 0.021
GAGACCGCAACTGAAAAGTTGTGGAGCCTATAGTGAGTCGCTGCCTGCAAAGACACAACT [AGCCT] | 0.307 ± 0.093
GAGACCGCAACTGAAAAGTTGTGGGCCAGATAGTGAGTCGCTGCCTGCAAAGACACAACT [GCCAG] | 0.28 ± 0.021
GAGACCGCAACTGAAAAGTTGTGGGCTAGATAGTGAGTCGCTGCCTGCAAAGACACAACT [GCTAG] | 0.375 ± 0.11
GAGACCGCAACTGAAAAGTTGTGGGCTACATAGTGAGTCGCTGCCTGCAAAGACACAACT [GCTAC] | 0.15 ± 0.04
GAGACCGCAACTGAAAAGTTGTGGCTCAAATAGTGAGTCGCTGCCTGCAAAGACACAACT [CTCAA] | 0.116 ± 0.038
GAGACCGCAACTGAAAAGTTGTGGACTACATAGTGAGTCGCTGCCTGCAAAGACACAACT [ACTAC] | 0.128 ± 0.011
GAGACCGCAACTGAAAAGTTGTGGCTCGAATAGTGAGTCGCTGCCTGCAAAGACACAACT [CTCGA] | 0.501 ± 0.012
GAGACCGCAACTGAAAAGTTGTGGCTCGCATAGTGAGTCGCTGCCTGCAAAGACACAACT [CTCGC] | 0.141 ± 0.0066
GAGACCGCAACTGAAAAGTTGTGGAAACGATAGTGAGTCGCTGCCTGCAAAGACACAACT [AAACG] | 0.742 ± 0.064
GAGACCGCAACTGAAAAGTTGTGGTAGCGATAGTGAGTCGCTGCCTGCAAAGACACAACT [TAGCG] | 0.52 ± 0.11
GAGACCGCAACTGAAAAGTTGTGGCAAGAATAGTGAGTCGCTGCCTGCAAAGACACAACT [CAAGA] | 0.182 ± 0.036
GAGACCGCAACTGAAAAGTTGTGGCGGTTATAGTGAGTCGCTGCCTGCAAAGACACAACT [CGGTT] | 0.202 ± 0.042
GAGACCGCAACTGAAAAGTTGTGGCATGCATAGTGAGTCGCTGCCTGCAAAGACACAACT [CATGC] | 0.1307 ± 0.00014
GAGACCGCAACTGAAAAGTTGTGGACACGATAGTGAGTCGCTGCCTGCAAAGACACAACT [ACACG] | 0.497 ± 0.035
GAGACCGCAACTGAAAAGTTGTGGATACGATAGTGAGTCGCTGCCTGCAAAGACACAACT [ATACG] | 1.5 ± 0.28

Variant | ligation selection enrichment
GAGACCGCAACTGAAAAGTTGTGGATACAATAGTGAGTCGCTGCCTGCAAAGACACAACT [ATACA] | 0.257 ± 0.032
GAGACCGCAACTGAAAAGTTGTGGGTATCATAGTGAGTCGCTGCCTGCAAAGACACAACT [GTATC] | 0.167 ± 0.036
GAGACCGCAACTGAAAAGTTGTGGAGCTCATAGTGAGTCGCTGCCTGCAAAGACACAACT [AGCTC] | 0.104 ± 0.0069
GAGACCGCAACTGAAAAGTTGTGGTGGTAATAGTGAGTCGCTGCCTGCAAAGACACAACT [TGGTA] | 0.325 ± 0.017
GAGACCGCAACTGAAAAGTTGTGGGCGGGATAGTGAGTCGCTGCCTGCAAAGACACAACT [GCGGG] | 0.201 ± 0.0056
GAGACCGCAACTGAAAAGTTGTGGCTTCGATAGTGAGTCGCTGCCTGCAAAGACACAACT [CTTCG] | 1.47 ± 0.55
GAGACCGCAACTGAAAAGTTGTGGTCTCGATAGTGAGTCGCTGCCTGCAAAGACACAACT [TCTCG] | 0.368 ± 0.12
GAGACCGCAACTGAAAAGTTGTGGAAAGCATAGTGAGTCGCTGCCTGCAAAGACACAACT [AAAGC] | 0.199 ± 0.038
GAGACCGCAACTGAAAAGTTGTGGCCCGAATAGTGAGTCGCTGCCTGCAAAGACACAACT [CCCGA] | 0.405 ± 0.013
GAGACCGCAACTGAAAAGTTGTGGAGAGAATAGTGAGTCGCTGCCTGCAAAGACACAACT [AGAGA] | 0.338 ± 0.038
GAGACCGCAACTGAAAAGTTGTGGTGATAATAGTGAGTCGCTGCCTGCAAAGACACAACT [TGATA] | 0.4829 ± 0.0015
GAGACCGCAACTGAAAAGTTGTGGATCGAATAGTGAGTCGCTGCCTGCAAAGACACAACT [ATCGA] | 3.45 ± 0.064
GAGACCGCAACTGAAAAGTTGTGGGACTCATAGTGAGTCGCTGCCTGCAAAGACACAACT [GACTC] | 0.111 ± 0.037
GAGACCGCAACTGAAAAGTTGTGGTAATGATAGTGAGTCGCTGCCTGCAAAGACACAACT [TAATG] | 1.16 ± 0.27
GAGACCGCAACTGAAAAGTTGTGGCTCTAATAGTGAGTCGCTGCCTGCAAAGACACAACT [CTCTA] | 0.182 ± 0.031
GAGACCGCAACTGAAAAGTTGTGGTTTTTATAGTGAGTCGCTGCCTGCAAAGACACAACT [TTTTT] | 0.314 ± 0.091
GAGACCGCAACTGAAAAGTTGTGGAGACGATAGTGAGTCGCTGCCTGCAAAGACACAACT [AGACG] | 0.532 ± 0.039
GAGACCGCAACTGAAAAGTTGTGGATCTTATAGTGAGTCGCTGCCTGCAAAGACACAACT [ATCTT] | 0.102 ± 0.083
GAGACCGCAACTGAAAAGTTGTGGATCTAATAGTGAGTCGCTGCCTGCAAAGACACAACT [ATCTA] | 0.203 ± 0.01
GAGACCGCAACTGAAAAGTTGTGGGAATTATAGTGAGTCGCTGCCTGCAAAGACACAACT [GAATT] | 0.249 ± 0.099
GAGACCGCAACTGAAAAGTTGTGGCGAGAATAGTGAGTCGCTGCCTGCAAAGACACAACT [CGAGA] | 0.348 ± 0.084
GAGACCGCAACTGAAAAGTTGTGGCGAGTATAGTGAGTCGCTGCCTGCAAAGACACAACT [CGAGT] | 1.09 ± 0.25
